Measurements from PMC3855398.

Molecular target: hGle1B tagged with mCerulean3 (Cer3-hGle1B) or mVenus (Venus-hGle1B) (human) (UniProt Q53GS7)
Assay: FRET or BRET

Sequence of UniProt Q53GS7 (Q53GS7 whole entry): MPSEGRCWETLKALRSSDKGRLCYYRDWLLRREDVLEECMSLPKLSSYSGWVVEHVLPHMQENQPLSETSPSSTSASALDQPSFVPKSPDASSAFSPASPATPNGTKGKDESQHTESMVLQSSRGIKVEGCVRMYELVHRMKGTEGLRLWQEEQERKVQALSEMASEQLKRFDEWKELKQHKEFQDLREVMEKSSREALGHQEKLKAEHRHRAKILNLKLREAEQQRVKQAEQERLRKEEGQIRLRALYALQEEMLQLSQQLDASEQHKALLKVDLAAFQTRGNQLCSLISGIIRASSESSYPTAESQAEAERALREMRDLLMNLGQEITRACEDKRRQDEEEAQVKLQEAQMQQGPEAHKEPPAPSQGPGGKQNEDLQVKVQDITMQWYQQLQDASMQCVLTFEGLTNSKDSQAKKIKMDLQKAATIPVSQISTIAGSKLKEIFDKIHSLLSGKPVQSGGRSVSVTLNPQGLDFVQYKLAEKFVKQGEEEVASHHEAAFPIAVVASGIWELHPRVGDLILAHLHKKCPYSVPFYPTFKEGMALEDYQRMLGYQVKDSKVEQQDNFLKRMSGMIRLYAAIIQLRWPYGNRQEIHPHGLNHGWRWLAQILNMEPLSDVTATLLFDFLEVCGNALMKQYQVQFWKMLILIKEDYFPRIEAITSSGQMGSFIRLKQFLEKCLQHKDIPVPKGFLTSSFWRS

Substance: mCerulean3 alone
- FRET efficiency (cytoplasm and nucleoplasm): < 1.25%
- normalized FRET (NFRET) signal (all locations): < 4.08
